Laboratory results taken from patent US20240043859A1, “HERBICIDE-RESISTANT PROTEIN, AND GENE AND USE THEREOF” (QINGDAO KINGAGROOT CHEMICAL COMPOUND CO., LTD., priority 2020, published 2024).
“Also recorded” adds a separate entry of the source.

What was measured:
[1] = tested on: maize B104; assay: Herbicide-resistance capacity testing of transgenic maize (spray); format: in vivo; details: 2,4-D 4.48 kg/ha foliage spray, 14 days / 15 days after spraying
Text: 1. Vector construction: the overexpression vector was altered from pCambia3300, containing a Bar resistance gene that can be used as a selection marker for bialaphos (glufosinate). The AAD-like gene, QYD42, SEQ ID NO. 83, was linked to the pCambia3300 at the BamH I restriction site by seamless cloning to construct the transgenic vector pQY2329, of which the expression cassette consisted of a maize ubiquitin-1 promoter, the AAD gene and a Nos terminator, as shown in FIG. 7-1.
2. Genetic transformation of maizes: Maize transformation was carried out by the Agrobacterium-mediated immature embryo transformation method (Jones T, Lowe K, Hoerster G, et al. Maize Transformation Using the Morphogenic Genes Baby Boom and Wuschel2. Methods Mol Biol. 2019; 1864:81-93. Doi: 10.1007/978-1-4939-8778-8 6). The Agrobacterium (EHA105) comprising the pQY2329 overexpression vector was inoculated into YEP liquid medium (containing 25 mg/L Rifampicin and 50 mg/L Kanamycin), and shaking-cultured a t 28° C., 220 rmp/min overnight until the OD600 was about 1.0-1.5, then centrifuged at 6000 rmp/min for 10 min to collect the cells into a 50 ml centrifuge tube (sterilized). After discarding the supernatant, the cells were resuspended using MS infect culture medium (containing 68.5 g/L sucrose, 36 g/L glucose, pH 5.8) to OD550=0.8. […]

[2] = tested on: Arabidopsis thaliana; assay: Herbicide resistance of transgenic Arabidopsis thaliana seedlings on plate medium (root growth); format: in vivo; details: plate medium with 2,4-D (0.3 μmol)

B1: QYD42: AAD-like enzyme, SEQ ID NO. 83; expressed from vectors pQY2309 (Arabidopsis), pQY2329 (maize), pQY2330 (soybean) (protein)
chain: MQITPIADATFGATVTGLRLATLDDAGFARLHAAWLQHALLVFPGQFLTNAEQIGFAKRFGPIERIGGGDIVAISNVKADGTVRQHSPAEWDDMMKVIVGNMAWHADSTYMPVMAQGAVFSAEVVPPTGGRTCFADMRAAYDALDDATRALVHQRSARHSLVYSQSKLGHVQQAGSAYVGYGMDTTATPLRPLVKRHPETGRLSLLIGRHAHAIPGLEEAESERFLEDLVAWACQPPRVVAHHWTAGDVVLWDNRCLLHRAEPWDFTLPRVMWHSRLAGHPETEAAPLV
modifications: Synthetic polypeptide, QYD42, D42
With B1 the “Resistance of T1 transgenic maize to 2,4-D (spray)” value [1] was “grew normally without any growth inhibition; also recorded: no apparent deformity” and the “2,4-D resistance of T1 generation transgenic seedlings (seminal root growth)” value [2] was “showing tolerance to 2,4-D”.
